Data: the DeepSol protein solubility set

assay: soluble on expression in E. coli; label from the status in PepcDB or PDB records

Sequence | soluble on expression in E. coli
MRGSHHHHHHGMASNEFPVVLVINCGSSSIKFSVLDVATCDVLMAGIADGMNTENAFLSINGDKPINLAHSNYEDALKAIAFELEKRDLTDSVALIGHRIAHGGELFTQSVIITDEIIDNIRRVSPLAPLHNYANLSGIDAARHLFPAVRQVAVFDTSFHQTLAPEAYLYGLPWEYFSSLGVRRYGFHGTSHRYVSRRAYELLDLDEKDSGLIVAHLGNGASICAVRNGQSVDTSMGMTPLEGLMMGTRSGDVDFGAMAWIAKETGQTLSDLERVVNKESGLLGISGLSSDLRVLEKAWHEGHERARLAIKTFVHRIARHIAGHAASLHRLDGIIFTGGIGENSVLIRQLVIEHLGVLGLTLDVEMNKQPNSHGERIISANPSQVICAVIPTNEEKMIALDAIHLGNVKAPVEFA | soluble
MGKPTGFLEYTREIPQELSPGDRLRNWDEFHVTMPDKQVETQGARCMDCGTPFCHTGSLISGMASGCPINNLIPEFNDLVYRGLWREALDRLHKTNNFPEFTGRVCPAPCEGSCVLGINNPPVTIKNIEYSIIEKGWQEGWVTPEPPAKRTGKKVAVVGSGPAGLAAAAQLNKAGHWVTVYEREDRPGGLLMYGIPNMKLDKEEVVLRRLNVLEAEGVTFVCNTEIGKDLPPETLLKDYDAVVLCTGATKPRDLAIAGRELEGIHFAMEFLTANTKAILDKTPGPNFISAKDKDVVIIGGGDTGTDCVGTSLRHGCRSLVQLEIMPKPPEERAANNPWPEWPKVYKMDYGQEEAAAVYGHDPRSYLTTATKIEGDDQGRVKAVHTVDVRWEKDGQGRFIPQQVAGTEQVRPAQLVLLAMGFVGPESQLLDAMKLDKDARGNIKAEYGQYETSIPGVFAAGDCRRGQSLVVWAFNEGRGAAKACDLYLMGETDLPLEHHHHHH | not soluble
MSEQIRLENLTIFMQRRAVKHVYLRVHPPDGRVTLVAPTGMRLEVVRAFVTAKLDWIHKQQAKLQAQVREVPRQFIGGESHTVWGRHYVLQVVEKSAGPCVLMDQQTITLQVRPGSDLFKRAAVMHAWHKSLLHAVVPDLIGKWQDRLGVSVSAYFLQQMKTRWGSCNTRRRHIRLNTDLVRKPQDLLEYVVVHELVHLIEPSHNKRFVGLMDQHYPAWREATAELNQIPLSAIRPRGLEHHHHHH | not soluble
MAESCVKPQLPRPRIPNIRVFQPTTRIPTFTYEQFNESVEILPSRPECLYRRNDPTNRSYRMKKRPPAQIYHCVQCNKHIKYPSKITEHIRKHTGEKPNVCSICNISFSQAHTLKTHMQQHAHEKPYKCSFCTAEFLNVYEKNEHEEQHMHHPNHGETMEENNATTSQFIQVAEPTIQAEPCQIYECSEMCGFQSYEEAEVVEHMTVTHYQQTKKSKEIPKLKNPGFSINFNYFQVQNGLILQDFNGEPEPIYEFYEEQYVQQVPTEIEETPTIKQQSIPYENLHFEHVEAAPGPSEPHLQVVAEGEILYDGEEIVDISNGKSLKEEIQNGDANIYGMIQDLEEEVEDIGNEDEERERVRIMVNPNPPKRGTKSLRDHHEATAATMEMIVDASILELAEPSRHLKQGYPPISKRKNTGKRAENLDWIIDAVAKGVDVSEASPHHRKKPTLHKCEYCGRVDKYPSKIRAHMRTHTGEKPFKCEICGMAFSQKTPMRLHLRRHFDQKPYECDVDGCKERFVSGAILKMHVEKKHLNKKKYVCSRGCGRVFSSAYNQKHHEKKCEQTYVTWVEGEQQSVESGEEDEESNGEYPDDDEEYMDDMIDASTSQPINRVVEHFSEEPVFLHQ | not soluble
MGSDKIHHHHHHMSMVEEKFKKLGVENAPGQELLQKGVKLDLKGEKILGEKIDFSHGDVDAHKPLPNSLELFIEGFNKGGIQAYTEYKGNKEIREYIAGKLSEYIKMNIPADNLIITPGTQGALFLATGSLITRGTKVSIVEPDYFANRKLVEFFEGEIVPIELDYFNVNEKKAGLNLKQLEEAFKSGVELFLFSNPNNPTGVIYSDEEITEIARLVNKYNVTVIADELYSRQIFDNREFYHLITKNINQDKLITIIGPSKTESLSGFRLGIAYGSPTIIKRMEKLQAITTLRTAGYNQAVLKSWFSEPDGFMKDRIEKHQAIRDNLIEKFKTIDGIKIRKTEAGSYIFPTLPELEVNLGDFVKILRIYANVIVTPGTEFGKSFINSIRLNFSQDEKKAAEGVDRILEMIRRYKK | not soluble
MSLRILDIREQAIPVSRYDDPAIASGGLTTSIVAIVTDVVRDGRPVTGYGYASAGRFAQGGLIRERFAPRLLAAAEALADDAGTNLDPLRAWRAMMAGEKPGGHGERCVAVGTLDMAIWDAAAKIARVPLHCLIADRLGRAAPARTARVRVYAGGGYRYPRDDLARLSDEMRRIVDLGYTHAKIKIGATDLDVDRRRIEAAAARLADSAHLAVDAMNAYDATNAGDAAAMLAPFGLWWFEDVCDPLDLPLHAQLAAQYAPPIAAGEALFSLAEAKLLDRYGGLRSDRDVLVFDPVHCYGLSGYLQIVDHFVSRGWRRDAFWPHGGHLFSLHVVAALGLGGAEVNPFAFHPFSGLADGERVDAGYAALPSAPGIGFECHARVHAAFRALSVREGHHHHHH | soluble
MGSDKIHHHHHHMEVERLSLKEFCDMVAERKPTPGGGAVGSVVGAMACALAEMVANFTRKKKGYEDVEPEMERIVEAMEEARLKLFDLAKKDMEAFEKVMKAYKSSEGELQNALKEAASVPMDVIRVMKDLAHELEKLAEFGNKNLASDTLNAADLCHAVFQVEKVNVLINLKEISDETFRKNMLEELEEQEAQIEGCYQRVKKMLEGIVWSSK | soluble
VGKPKMDVDLLQVDADLKKEIFDAYYNTMKTAVMTEEKLAREVEIDKVKDTVKEVYAEKFSEHEEEAQLLKEVKQIAEDLEKDVVRELITIDKIRPDGRKLDEIRH | not soluble
MKYKIFASTTPQTEPVLNKLRAVLKTWQAVENGYEYVFVLGGDGFFVSTLANYNCDSCKVVGINTGHIGFYTSFNGDDLDENFISKLTSFEFKKINLLEVKTKNHSFLVLNELAVYTNTAYPINIFIDDNHWESYRGSGLLIGPRTGSTALAKSAKGAVIFPNVDVVQIIELNPLLHPNQITIQSPIILPMQTKVEFRIKKAFKAEQFPNFYADGIKLDLKNEDTSISFQLVLSRSMFHASLKTKDFIDKLKSTFIKQSLEHHHHHH | soluble
MISWEIEELDREIGKIKKHSLILIHEEDASSRGKDILFYILSRKLKSDNLVGMFSISYPLQLIIRILSRFGVDVIKYLENHRLAIVDTFGSFHGIKATMPGVWYLEGMLSSETLPIKYAKAVEDHKKVWMDLNLFEGRELYGFAISMSGYLEVFTPEETLRYLETSAEVRYGHPAYKKYPRGTNFWLWEGVKDKRVLLSVYRRADYVLKTRSSLGENGIKRELLVIKTPKPIEELVRFEYEFKGNEPKLRRVD | soluble
MASSFDNQMDQDGMCSVYSAQPSETNCSINEVLAKEIIAVNETPDDQADSSIYPIPKSETNVSASEGFQPCQDINQFNLSVYSAPKSETPVTMNEKFERCKDLMNVLDYSVYSMPPSEANVTMNVASFSEYTALASETNVTMADVLKNVAQDLASEHTAKSAHPTFDTTAYVERLQAELGIPDSKVIGLECSNFSNAKIIDSIECLHQLDKFQPIPVDFDQNPDFGKTAKSVESYLLRSSNASSIHHEI | not soluble
MGSDKIHHHHHHMTDKLSPRGRPLYLGSRGRHTRFSRIADSVADSFNLSKELTTATLLAAVNSALRGKASITINQDWDEPVNAFFLVCAESGGGKSPSNNFFKQPQLNFQTEWNEQNKNLYLRASVDKKYFAQKLKKHTQQAAELDYGNPKALEQYHAETTRLTEAYEKALRCQPLELFVDDVTNKSLIEAMSRQDGRIAIMEPEVSAFRHIVRAKEVSPILDTILKSFSGERIQLNRAGEPALTIERPILALNIMVQPPIMMQLAKNKAIQGRGILGRFFVTIVEKPRYSRFRHDPIEVPPEVRFEYQDTIYKILTTVEKSKDLLSFSLSDEATEAWLAVKDDVESSIPHNPPPGYGEWKAKAGKHLLHLACLVHIFEHQASNTIIDKRSFELAELLFNFFDKNMWSMLRFMYPEIDFLVAVKALSSGKLYNMGEFSARDMQRALGTYNSTQIAQGIDWLLDNRAIDPIEHRHIENSAKTTMHVGRKKSPTYKIIDAEWHYLRDELL | not soluble
GSHMASPPTHNAHNWRLGQAPANWYNDTYPLSPPQRTPAGIRYRIAVIADLDTESRAQEENTWFSYLKKGYLTLSDSGDKVAVEWDKDHGVLESHLAYKGRGMELSDLIVFNGKLYSVDDRTGVVYQIEGSKAVPWVILSDGDGTVEKGFKAEWLAVKDERLYVGGLGKEWTTTTGDVVNENPEWVKVVGYKGSVDHENWVSNYNALRAAAGIQPPGYLIHESACWSDTLQRWFFLPRRASQERYSEKDDERKGANLLLSASPDFGDIAVSHVGAVVPTHGFSSFKFIPNTDDQIIVALKSEEDSGRVASYIMAFTLDGRFLLPETKIGSVKYEGIEFI | soluble
LDGVLVPESGILVSVGQDVDSVNDYASALGTIPAGVTNYVGIVNLDGLNSDADAGAGRNNIAELANAYPTSALVVGVSMNGEVDAVASGRYNANIDTLLNTLAGYDRPVYLRWAYEVDGPWNGHSPSGIVTSFQYVHDRIIALGHQAKISLVWQVASYCPTPGGQLDQWWPGSEYVDWVGLSYFAPQDCNWDRVNEAAQFARSKGKPLFLNESTPQRYQVADLTYSADPAKGTNRQSKTSQQLWDEWFAPYFQFMSDNSDIVKGFTYINADWDSQWRWAAPYNEGYWGDSRVQANALIKSNWQQEIAKGQYINHSETLFETLGYGSTHHHHHH | soluble
MIVGAGPAGIRAAAALADAGLHPVVIDEGNRAGGQIYRRPPDGFVRTPGQLYGSEAAKARALHAVFDRLTADGRLTHCAGSSVIAVQTGRLHVLGEGGVQVIFYDRLILATGASDRVAPVPGWQSAGVYSLGAAQIALKAQGVALGRRIVLMGSGPLLTLVGAQLIKAGADVAAVLDTSPWRQQMRGLWKLAARPLVALRGLALRARLGGRYHAGVSLEKIEADGQGVTAMRWRDAGGRQRLTPCDTIGMGWHLRAETHLADLAGCAFTYDEQWRQWLPKTDRMGRAGNGVYLAGDGVRLLGADGAEIAGRLAAAACLADLGFPAPTNAADLRELTRLERFAHGLVCAFPWPAAMVRALPDAAIVCRCENVTAGAVRDSVDLGGGEANRVKSLSRLGMGRCQGRYCHLAAVELAAAQSGCTPDAVGRFRGQAPARPAPIGAFLPEGLEHHHHHH | not soluble
MDTLGLVESRSIAAGVNLADGMVKVAQVELVRAGTICSGRYFICLGGDRQAVQTAVSHAEQSGSALAGSYVISGVSPQVLAVLKKSVQPGTPGALGVVECRTVSAGIAAADAAVKRSGISLLRLVTGQGINGKSYFVFSGDVASVQEAADAAKTALGRHLIESVVIARPDASVVRALTSGVR | not soluble
MAETDPKSVQDLTAVVQTLLQQMQDKFQTMSDQIIGRIDEMSTRIDDLEKNIADLMTQAGVEEIEGENKVKEGDAS | soluble
MAKPILYSYWRSSCAWRVRIALALKNIDYEYRPIDLFSEESKNNAEFVKHNPAKKVPTLVINGLSLTESLAIIEYLDEAYPDPPFLPKELDKRSYSRAIALHIVASIQPLQAINIHKMLNEKEPGYGDFWCNHFVNKGFLALEELLKKHSGKYCVGDQLTIADINLPSIIYNAKIYKVDMSKYPTITRINEILAEDFRFKLAHPDNQPDAPNKN | not soluble
MNGEVMDELIQKLERVSQTSFIGSGKLMELSELVEMHEADVVIFNSELSATQVRNISKIVDARIIDLEHHHHHH | not soluble
MVIHKINKLIATIKTQGIRKAIVKVAAQFKFSYKYYFIYTYNLNSSSPAIAVNEAINTNENDYSIKWWSESDFCKNKTTYLEKRSDMTDSYIENWLPLGHQTVVARSLPNNDIIGDMWLAFDNFPFPSKSKSLRDWAIENHYGYAFMAFVQPSHRGKKILPCLMNEQLKLVKDNNKKGLMALIMPKSKSSHKSFSSMGFKRVGKLHVLQLFSNNHTWISV | not soluble
